Drawing on publication PMC12852032, this text covers maximum MSD signal for one molecule.

For experiment [1], the target named is recombinant rat C2 (rat). The experiment is described as follows: Meso Scale Discovery (electrochemiluminescence plate binding assay); rat C2 coated on the plate; serial dilutions of antibody; binding and washing at pH 7.4 + 1.25 mM Ca2+.
Experiment [2] deals with recombinant rat C2 (rat). The experiment is described as follows: Meso Scale Discovery (electrochemiluminescence plate binding assay); rat C2 coated on the plate; serial dilutions of antibody; binding and washing at pH 7.4; detection with Sulfo-tag goat anti-human IgG.

B1: empasiprubart (antibody, V domains shown)
VH: EVQLVQSGAEVKKPGASVKVSCKASGYTFTDYNMDWVRQATGQGLEWIGDINPNYESTGYNQKFKGRATMTVDKSISTAYMELSSLRSEDTAVYYCAREDDHDAFAYWGQGTLVTVSS
VL: DNVLTQSPDSLAVSLGERATISCRASKSVRTSGYNYMHWYQQKPGQPPKLLIYLASNLKSGVPDRFSGSGSGTDFTLTISSLQAEDAATYYCQHSRELPYTFGQGTKLEIK
Consider B1, for which the values for the maximum MSD signal in the experiment with recombinant rat C2 (rat) [1] and with recombinant rat C2 (rat) [2] were 24700 and 12000, respectively.
